# According to the supplement of paper PMC9170038:
# Test system: MS2 coat protein
# Test: apparent KD of MS2 coat protein; designed switch direction (-1 OFF switch, 1 ON switch): -1; higher = weaker reporter binding
# Summary of the method: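 The reported apparent KD is a per-design median over clusters, from curve fits of normalised cluster fluorescence. Protein titrations used SNAP-549-labelled MS2 coat protein, doubled from 0.7 or 1.5 nM to 3 µM, in Tris-HCl pH 7.5 buffer with KCl, MgCl2, BSA, DTT, tRNA and Tween-20, with no input, 200 uM small-molecule ligand, or an oligonucleotide input. The RNA switches were transcribed on Illumina chips by stalled E. coli RNA polymerase.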
# [1] = Eterna round: R95, input ligand: microRNA oligo, concentration not stated
# [2] = input ligand: microRNA oligo, concentration not stated
# [3] = Eterna round: R95, input ligand: FMN 200 uM
# [4] = Eterna round: R95, input ligand: none
Sequence,apparent KD of MS2 coat protein [1],apparent KD of MS2 coat protein (input ligand: FMN 200 uM),apparent KD of MS2 coat protein (input ligand: none),apparent KD of MS2 coat protein [2],apparent KD of MS2 coat protein [3],apparent KD of MS2 coat protein [4]
AUUAUGUAAGGAUAUCUUACAUGUGACUUCGGUCACUGUUCAGAGAAGGUACAUGAGGAUCACCCAUGUAGAAC [Ex4-3: 46] (puzzle: Exclusion 4),18 nM,–,–,–,–,–
"AUUAUGUUAGGAUAUGCUUAUGGUGGAUAAUCGGAUAUGAUGCAGAAGGGACAUGAGGAUCACCCAUGUACUGU [EX4 #23] (Eterna round: R97, puzzle: Exclusion 4)",–,21.5 nM,22.1 nM,–,–,–
"AUUCAACAUGAGGAUCACCCAUGUGAGGAUAUGCGAGUGCAGACUUCGGUUUGAUAGAGCAGAAGGCGCAGGUA [EX1 #13] (Eterna round: R97, puzzle: Exclusion 1)",–,69.6 nM,30.8 nM,–,–,–
"AUUCCAACUUGAGGAUAUUAGUGGAACAGCCACUGAGAAGGCAGAUAACACCCUCAUAAACAUGAGGAUCACCCAUGUAGGAGA [Eternabot solution 44] (Eterna round: R96, puzzle: Exclusion NG 1)",–,132 nM,86.3 nM,78.1 nM,–,–
"AUUCGGAUAGGAUAUACUUGAGGAUCACCCAAGUGUUUGAACUAUCGUGAUCUGAAGAGUAGAAGGAUCAUCAU [Atquedzaed] (Eterna round: R97, puzzle: Exclusion 3)",–,176 nM,90.7 nM,–,–,–
"AUUGAUAGCACAGGAUAUUGAGAUUUGAAUUGACAAGAAGGGUGUACAUGAGGAUCACCCAUGUAAUGGUUGCCUCGUUGAUUA [JR_ExcNG1_Sub004] (Eterna round: R96, puzzle: Exclusion NG 1)",–,1070 nM,148 nM,125 nM,–,–
AUUGAUAUUGAGGAUAUGCUUUUAUUUGUACUAGCAGAAGGCGAUACAUGAGGAUCACCCAUGUUUAUGGAAGU [JR_E6_Sub088] (puzzle: Exclusion 6),35.6 nM,–,–,–,50.5 nM,29.4 nM
"AUUGUAUGAGGAUAUACACCAGUGGGAGUGUCUUGCGUGAUACAUGAGGAUCACCCAUGUAGAAGGCGUACUAC [Eternabot (L2) Solution 90] (Eterna round: R97, puzzle: Exclusion 2)",–,36.9 nM,16 nM,–,–,–
"AUUGUUUAUGUAGGAUAUGCCUGGCGUGCCUUUGCAGAAGGACAUGAGGAUCACCCAUGUAUUGCGGUCUGCGUUCAGAUCGCC [salish99_ExNG1_r4_035] (Eterna round: R96, puzzle: Exclusion NG 1)",–,27.6 nM,24.1 nM,16.7 nM,–,–
AUUUAAACAUAGGAUAUCGAAUUUAUCAUUUAACGAGAAGGAUGAACAUGAGGAUCACCCAUGUGGUAUCAUGG [Mat - Exclusion 6 - JL Mod - D4] (puzzle: Exclusion 6),279 nM,–,–,–,398 nM,368 nM
"AUUUAACAUGAGGAUCACCCAUGUGAGGAUAUGCGAGUAUAGACUUCGGUCUGAUAGAGCAGAAGGCGCAGAUA [EX1 #8] (Eterna round: R97, puzzle: Exclusion 1)",–,67.7 nM,55.9 nM,–,–,–
AUUUAGAGAGGAUAUAUAUUUUAAAACAUGAGGAUCACCCAUGUAAUUUUAUGGGAGUAAAUAGAAGGCUCAUUUA [JMFs Solution 2] (puzzle: Exclusion 5),52.8 nM,–,–,–,54.3 nM,53.1 nM
"AUUUAGCAAGUCAGAUCCUACAUGAGGAUCACCCAUGUUGUUCGUCUUAUUUGAAGACAACACAAAAGUGUUGUCUU [Omei Mir OFFv1 B5] (Eterna round: R97, puzzle: Sensor, turn-off variant 1)",–,79.9 nM,77 nM,–,–,–
